T1: rat FcRn (rat, UniProt P13599)
T1 chain 1: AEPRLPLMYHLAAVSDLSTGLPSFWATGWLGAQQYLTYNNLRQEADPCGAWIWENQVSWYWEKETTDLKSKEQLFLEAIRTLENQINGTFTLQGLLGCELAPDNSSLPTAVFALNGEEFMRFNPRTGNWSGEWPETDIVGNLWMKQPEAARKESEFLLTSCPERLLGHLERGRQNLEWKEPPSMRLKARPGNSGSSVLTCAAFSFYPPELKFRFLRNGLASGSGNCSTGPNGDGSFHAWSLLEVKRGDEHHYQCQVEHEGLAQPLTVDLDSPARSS
T1 chain 2: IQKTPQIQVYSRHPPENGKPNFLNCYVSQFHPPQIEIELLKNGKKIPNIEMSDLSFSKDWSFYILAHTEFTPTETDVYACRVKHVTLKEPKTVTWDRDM

T2: mouse FcRn (mouse, UniProt Q61559)
T2 chain 1: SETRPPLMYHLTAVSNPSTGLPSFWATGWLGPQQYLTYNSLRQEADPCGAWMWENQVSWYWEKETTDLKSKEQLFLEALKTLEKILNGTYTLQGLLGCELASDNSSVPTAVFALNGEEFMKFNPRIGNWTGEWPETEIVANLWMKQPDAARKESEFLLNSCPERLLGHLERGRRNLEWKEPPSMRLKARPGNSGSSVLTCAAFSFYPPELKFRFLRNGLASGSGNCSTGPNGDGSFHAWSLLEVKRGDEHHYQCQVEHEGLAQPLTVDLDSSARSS
T2 chain 2: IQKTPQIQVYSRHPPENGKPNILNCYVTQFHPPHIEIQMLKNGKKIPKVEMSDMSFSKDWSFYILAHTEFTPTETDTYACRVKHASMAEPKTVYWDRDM


How the values were obtained:
[1] = target: T3, shFcRn (human, UniProt P55899); assay: SPR pH 7.4
[2] = target: T3, shFcRn; assay: SPR pH 6.0
[3] = target: T1, rat FcRn; assay: FACS pH 7.4
[4] = target: T2, mouse FcRn; assay: FACS pH 6.0
[5] = target: T3, shFcRn; assay: SPR pH 6.0; remark: listed apart in the source
[6] = target: T3, shFcRn; assay: SPR pH 7.4; remark: listed apart in the source
[7] = target: T3, shFcRn; assay: SPR pH 6.0; remark: listed apart in the source
[8] = target: T3, shFcRn; assay: SPR pH 7.4; remark: listed apart in the source

| Kd [2] | koff [7] | koff [8] | Binder | also measured |
| --- | --- | --- | --- | --- |
| 0.35 nM | – | – | HL161-11H (antibody) chain 1: QMQLVESGGGLVQPGRSLRLSCAASGFTFSSYAMHWVRQAPGKGLEWVAVISYDGSNKYYADSVKGRFTISRDNSKNTLYLQMNSLRSEDTAVYYCSRGSGGRDAFDVWGQGTMITVSS chain 2: DIQMTQSPSTLSASVGDRVTITCRASQSISSRLAWYQQKPGKAPKLLIYKASSLETGVPSRFSGSGSGTEFTLTISSLQPDDFATYYCQQTNSFPLTFGGGTKVEIK | Kd [1]: 0.9 nM; binding result [3]: no binding; binding result [4]: no binding |
| – | – | – | 11Hg (antibody) chain 1: QVQLVESGGGVVQPGRSLRLSCAASGFTFSSYAMHWVRQAPGKGLEWVAVISYDGSNKYYADSVKGRFTISRDNSKNTLYLQMNSLRAEDTAVYYCARGSGGRDAFDVWGQGTMITVSS chain 2: DIQMTQSPSTLSASVGDRVTITCRASQSISSRLAWYQQKPGKAPKLLIYKASSLETGVPSRFSGSGSGTEFTLTISSLQPDDFATYYCQQTNSFPLTFGGGTKVEIK | koff [5]: 0.000434 s⁻¹; koff [6]: 0.000433 s⁻¹ |
| 1.9 nM | – | – | HL161-6C (antibody) chain 1: QVQLVESGAEVKKPGASVKVSCKASGYTFTSYYMHWVRQAPGQGLEWMGIINPSGGSTSYAQKFQGRVTMTRDTSTSTVYMELSSLRSEDTAVYYCARGGGAFDIWGQGTMVTVSS chain 2: DIQMTQSPSSVSASVGDRVTITCRASQGISNWVAWYQQKPGKAPKLLIYAASSLQSGVPSRFSGSGSGTDFTLTISSLQPEDFAIYYCQQGHSFPYTFGQGTKVEIK | Kd [1]: 6.6 nM |
| 3.8 nM | – | – | HL161-10E (antibody) chain 1: QVQLVESGGGLVQPGGSLRLSCAASGFRFSNFAMTWVRQAPGKGLEWVSTLSGSGGSIHHADSVKGRFTISRDNSKNTLYLQMNSLRAEDTAVYYCAKGPLRGQPAYLDPWGQGTLVTVSS chain 2: SYELTQPLSVSMSPGQTARITCSGDALSKQYASWYQLKPGQAPVVVMYKDTERPSGIPDRFSGSSSGTTVTLTISGVQAEDEADYYCQSITDKSGTDVIFGGGTKLTVL | Kd [1]: 26 nM |
| – | 0.00022 s⁻¹ | 0.00235 s⁻¹ | A12-H04 (antibody) chain 1: EVQLVESGGGLVQPGRSLRLSCAASGFTFDEYGMHWVRQAPGKGLEWVSGVSWNSGSIAYADSVRGRFTISRDNAKNSLYLQMNSLRAEDTALYYCAKGRLLDVWGQGTTVTVSS chain 2: QSALTQPASVSGSPGQSITISCTGSSSDVGGYNYVSWYQQHPGKAPKLMIYDVTKRPSGVSNRFSGSKSGNTASLTISGLQAEDEADYYGAYSNTNFYVFGTGTKVTVL | – |
| – | 5.99e-05 s⁻¹ | 0.00115 s⁻¹ | A12-E01 (antibody) chain 1: EVQLVESGGGLVQPGRSLRLSCAASGFTFDEYGMHWVRQAPGKGLEWVSGVSWNSGSIAYADSVRGRFTISRDNAKNSLYLQMNSLRAEDTALYYCAKSRSMDVWGQGTTVTVSS chain 2: QSALTQPASVSGSPGQSITISCTGSSSDVGGYNYVSWYQQHPGKAPKLMIYDVTKRPSGVSNRFSGSKSGNTASLTISGLQAEDEADYYGSYSNNNFYVFGTGTKVTVL | – |
| 0.8 nM | – | – | HL161-1A (antibody) chain 1: QVQLVQSGGGLVQPGRSLRLSCAASGFSFGEYGMHWVRQAPGKGLEWVSGVSWNSGSIAYADSVRGRFTISRDNSKNSLYLQMNSLRAEDTAVYYCARGRSMDVWGQGTTVTVSS chain 2: NFMLTQPASVSGSPGQTITISCTGSSSDVGGYNYVSWYQQHPGKAPQLIIYDVTKRPSGVSNRFSGSKSGNSASLTISGLQAEDEADYYCSSYSSSTFYVFGTGTKVTVL | – |
| – | 0.000305 s⁻¹ | 0.000225 s⁻¹ | A12-F02 (antibody) chain 1: EVQLVESGGGLVQPGRSLRLSCAASGFTFDEYGMHWVRQAPGKGLEWVSGVSWNSGSIAYADSVRGRFTISRDNAKNSLYLQMNSLRAEDTALYYCAKGRYLDVWGQGTTVTVSS chain 2: QSALTQPASVSGSPGQSITISCTGSSSDVGGYNYVSWYQQHPGKAPKLMIYDVTKRPSGVSNRFSGSKSGNTASLTISGLQAEDEADYYGSYDSNTFYVFGTGTKVTVL | – |
| – | 0.000216 s⁻¹ | 0.00222 s⁻¹ | A12-E05 (antibody) chain 1: EVQLVESGGGLVQPGRSLRLSCAASGFTFDEYGMHWVRQAPGKGLEWVSGVSWNSGSIAYADSVRGRFTISRDNAKNSLYLQMNSLRAEDTALYYCAKGRILDVWGQGTTVTVSS chain 2: QSALTQPASVSGSPGQSITISCTGSSSDVGGYNYVSWYQQHPGKAPKLMIYDVTKRPSGVSNRFSGSKSGNTASLTISGLQAEDEADYYGSYNNSTFYVFGTGTKVTVL | – |
| – | 0.000177 s⁻¹ | 0.000909 s⁻¹ | A12-C09 (antibody) chain 1: EVQLVESGGGLVQPGRSLRLSCAASGFTFDEYGMHWVRQAPGKGLEWVSGVSWNSGSIAYADSVRGRFTISRDNAKNSLYLQMNSLRAEDTALYYCAKGRTMDVWGQGTTVTVSS chain 2: QSALTQPASVSGSPGQSITISCTGSSSDVGGYNYVSWYQQHPGKAPKLMIYDVTKRPSGVSNRFSGSKSGNTASLTISGLQAEDEADYYGSYSSNTFYVFGTGTKVTVL | – |
| – | 0.000222 s⁻¹ | 0.000212 s⁻¹ | 1Ag (antibody) chain 1: EVQLVESGGGLVQPGRSLRLSCAASGFTFDEYGMHWVRQAPGKGLEWVSGVSWNSGSIAYADSVRGRFTISRDNAKNSLYLQMNSLRAEDTALYYCAKGRSMDVWGQGTTVTVSS chain 2: QSALTQPASVSGSPGQSITISCTGSSSDVGGYNYVSWYQQHPGKAPKLMIYDVTKRPSGVSNRFSGSKSGNTASLTISGLQAEDEADYYCSSYSSSTFYVFGTGTKVTVL | – |
| – | 0.000225 s⁻¹ | 0.000496 s⁻¹ | A11-G06 (antibody) chain 1: EVQLVESGGGLVQPGRSLRLSCAASGFTFDEYGMHWVRQAPGKGLEWVSGVSWNSGSIAYADSVRGRFTISRDNAKNSLYLQMNSLRAEDTALYYCAKGRLMDVWGQGTTVTVSS chain 2: QSALTQPASVSGSPGQSITISCTGSSSDVGGYNYVSWYQQHPGKAPKLMIYDVTKRPSGVSNRFSGSKSGNTASLTISGLQAEDEADYYGSYNNNTFYVFGTGTKVTVL | – |
| – | 0.000132 s⁻¹ | 0.00137 s⁻¹ | A12-E04 (antibody) chain 1: EVQLVESGGGLVQPGRSLRLSCAASGFTFDEYGMHWVRQAPGKGLEWVSGVSWNSGSIAYADSVRGRFTISRDNAKNSLYLQMNSLRAEDTALYYCAKGRLFDVWGQGTTVTVSS chain 2: QSALTQPASVSGSPGQSITISCTGSSSDVGGYNYVSWYQQHPGKAPKLMIYDVTKRPSGVSNRFSGSKSGNTASLTISGLQAEDEADYYGSYSNSNFYVFGTGTKVTVL | – |
| – | 0.000393 s⁻¹ | 0.00248 s⁻¹ | A11-C07 (antibody) chain 1: EVQLVESGGGLVQPGRSLRLSCAASGFTFDEYGMHWVRQAPGKGLEWVSGVSWNSGSIAYADSVRGRFTISRDNAKNSLYLQMNSLRAEDTALYYCAKGRYSDVWGQGTTVTVSS chain 2: QSALTQPASVSGSPGQSITISCTGSSSDVGGYNYVSWYQQHPGKAPKLMIYDVTKRPSGVSNRFSGSKSGNTASLTISGLQAEDEADYYASYSSNTFYVFGTGTKVTVL | – |
| 0.16 nM | – | – | HL161-11G (antibody) chain 1: QMQLVESGGGVVQPGRSLRLSCVGSGFNFNSYGIHWVRQAPGKGLEWVGGIFYDGSQVKYADSVKGRVSISRDNSKNTAYLQMNSLRAEDTAVYYCARRNLLDYWGQGTVVTVSS chain 2: NFMLTQPASVSGSPGQSITISCTGSSSDVGGYNYVSWYQQHPGKAPQLIIYDVTKRPSGVSNRFSGSKSGNSASLTISGLQAEDEADYYCSSYSSSTFYVFGTGTKVTVL | – |
